Assay results taken from PMC4159615 (Developmental cell, 2014).

Legend:
Bch1 = target: T1, Bch1 (S. cerevisiae (yeast), UniProt Q05029 1-724); test: crystal structure
T1 sequence: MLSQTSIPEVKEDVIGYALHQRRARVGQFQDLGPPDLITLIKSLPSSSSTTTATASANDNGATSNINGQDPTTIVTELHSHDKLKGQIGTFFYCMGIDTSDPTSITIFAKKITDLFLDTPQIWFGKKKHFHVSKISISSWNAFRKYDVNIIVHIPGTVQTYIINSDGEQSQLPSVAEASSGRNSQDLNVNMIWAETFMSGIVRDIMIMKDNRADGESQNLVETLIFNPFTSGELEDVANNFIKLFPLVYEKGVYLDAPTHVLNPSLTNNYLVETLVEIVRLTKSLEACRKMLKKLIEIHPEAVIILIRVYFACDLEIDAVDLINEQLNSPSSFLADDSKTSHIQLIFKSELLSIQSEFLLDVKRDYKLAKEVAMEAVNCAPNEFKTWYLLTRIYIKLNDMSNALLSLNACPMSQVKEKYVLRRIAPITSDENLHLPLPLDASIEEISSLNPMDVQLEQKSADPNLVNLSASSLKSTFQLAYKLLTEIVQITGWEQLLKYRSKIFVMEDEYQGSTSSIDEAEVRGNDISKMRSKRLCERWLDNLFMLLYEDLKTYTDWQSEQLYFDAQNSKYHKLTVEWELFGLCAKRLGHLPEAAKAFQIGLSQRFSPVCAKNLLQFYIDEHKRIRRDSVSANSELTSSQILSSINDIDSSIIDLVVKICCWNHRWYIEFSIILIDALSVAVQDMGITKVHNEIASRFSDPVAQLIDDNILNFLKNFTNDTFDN

crystal structure = target: the molecule itself; test: crystal structure
[1] = target: T2, Chs5(1-299)/Bch1-N692I exomer complex (S. cerevisiae (yeast), UniProt Q12114 1-299; Q05029 1-724, N692I); test: co-sedimentation
T2 sequence 1: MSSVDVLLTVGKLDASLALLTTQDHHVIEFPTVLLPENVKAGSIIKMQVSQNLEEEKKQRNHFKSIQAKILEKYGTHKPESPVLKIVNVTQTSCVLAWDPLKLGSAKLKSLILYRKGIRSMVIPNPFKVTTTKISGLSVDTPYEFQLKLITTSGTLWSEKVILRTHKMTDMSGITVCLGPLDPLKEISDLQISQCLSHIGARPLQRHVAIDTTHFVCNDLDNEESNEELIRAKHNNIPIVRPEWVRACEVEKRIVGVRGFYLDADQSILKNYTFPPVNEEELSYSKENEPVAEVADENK
T2 sequence 2: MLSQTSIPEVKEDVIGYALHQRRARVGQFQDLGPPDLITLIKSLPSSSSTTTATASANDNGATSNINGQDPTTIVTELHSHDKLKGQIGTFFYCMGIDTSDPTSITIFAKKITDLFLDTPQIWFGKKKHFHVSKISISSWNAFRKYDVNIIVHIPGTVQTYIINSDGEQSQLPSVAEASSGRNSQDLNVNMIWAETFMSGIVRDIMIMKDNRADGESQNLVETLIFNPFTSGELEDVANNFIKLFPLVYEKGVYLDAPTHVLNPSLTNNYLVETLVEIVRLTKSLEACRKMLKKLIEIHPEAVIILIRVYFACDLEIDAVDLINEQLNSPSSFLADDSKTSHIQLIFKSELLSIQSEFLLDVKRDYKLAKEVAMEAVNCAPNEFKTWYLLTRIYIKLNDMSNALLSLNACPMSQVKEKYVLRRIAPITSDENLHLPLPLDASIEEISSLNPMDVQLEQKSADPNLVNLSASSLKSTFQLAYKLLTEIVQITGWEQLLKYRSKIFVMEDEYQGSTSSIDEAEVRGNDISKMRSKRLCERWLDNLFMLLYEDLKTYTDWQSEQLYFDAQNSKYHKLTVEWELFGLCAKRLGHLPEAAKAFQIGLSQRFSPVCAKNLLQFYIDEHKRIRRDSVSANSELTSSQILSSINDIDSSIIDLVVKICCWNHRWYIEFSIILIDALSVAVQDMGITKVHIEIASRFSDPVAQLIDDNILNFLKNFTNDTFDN

[2] = target: T3, Chs5(1-299)-T92Y/Bch1-N692I exomer complex (S. cerevisiae (yeast), UniProt Q12114 1-299; Q05029 1-724, T92Y | N692I); test: co-sedimentation
T3 sequence 1: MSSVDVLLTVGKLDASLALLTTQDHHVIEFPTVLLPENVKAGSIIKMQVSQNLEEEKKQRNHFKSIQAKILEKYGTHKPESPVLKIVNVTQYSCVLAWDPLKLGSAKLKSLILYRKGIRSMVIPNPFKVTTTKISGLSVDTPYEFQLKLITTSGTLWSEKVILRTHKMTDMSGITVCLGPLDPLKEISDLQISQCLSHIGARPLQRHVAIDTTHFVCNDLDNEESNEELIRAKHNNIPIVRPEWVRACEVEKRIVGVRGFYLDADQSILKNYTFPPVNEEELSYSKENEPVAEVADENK
T3 sequence 2: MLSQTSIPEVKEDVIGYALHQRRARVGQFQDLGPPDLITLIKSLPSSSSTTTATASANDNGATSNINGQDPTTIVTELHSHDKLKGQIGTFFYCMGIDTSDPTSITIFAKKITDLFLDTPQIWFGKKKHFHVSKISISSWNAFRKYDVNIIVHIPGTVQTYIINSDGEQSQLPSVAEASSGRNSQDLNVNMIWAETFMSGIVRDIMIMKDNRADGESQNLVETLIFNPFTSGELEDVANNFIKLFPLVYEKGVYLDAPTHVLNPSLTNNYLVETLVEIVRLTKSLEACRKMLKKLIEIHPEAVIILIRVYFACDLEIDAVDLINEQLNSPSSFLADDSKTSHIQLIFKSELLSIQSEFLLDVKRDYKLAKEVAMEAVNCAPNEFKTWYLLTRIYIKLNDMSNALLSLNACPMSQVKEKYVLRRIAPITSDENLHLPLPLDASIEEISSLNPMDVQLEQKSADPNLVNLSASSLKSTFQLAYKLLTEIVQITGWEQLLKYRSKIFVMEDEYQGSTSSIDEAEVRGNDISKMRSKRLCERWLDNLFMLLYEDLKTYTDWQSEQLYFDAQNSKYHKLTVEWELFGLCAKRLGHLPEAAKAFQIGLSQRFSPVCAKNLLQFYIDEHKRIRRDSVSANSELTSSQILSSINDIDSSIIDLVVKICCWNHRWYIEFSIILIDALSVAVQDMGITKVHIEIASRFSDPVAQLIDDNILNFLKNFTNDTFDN

[3] = target: T4, Chs5(1-299)/Chs6 exomer complex (S. cerevisiae (yeast), UniProt Q12114 1-299; P40955 1-746); test: co-sedimentation
T4 sequence (looked up) 1: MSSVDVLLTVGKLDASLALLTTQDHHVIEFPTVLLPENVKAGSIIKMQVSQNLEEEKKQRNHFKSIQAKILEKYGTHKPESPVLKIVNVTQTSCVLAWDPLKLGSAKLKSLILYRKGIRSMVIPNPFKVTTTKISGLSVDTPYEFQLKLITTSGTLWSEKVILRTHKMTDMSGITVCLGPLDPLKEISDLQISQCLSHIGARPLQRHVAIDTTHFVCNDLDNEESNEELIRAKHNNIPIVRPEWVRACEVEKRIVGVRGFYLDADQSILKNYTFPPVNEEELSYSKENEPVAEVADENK
T4 sequence (looked up) 2: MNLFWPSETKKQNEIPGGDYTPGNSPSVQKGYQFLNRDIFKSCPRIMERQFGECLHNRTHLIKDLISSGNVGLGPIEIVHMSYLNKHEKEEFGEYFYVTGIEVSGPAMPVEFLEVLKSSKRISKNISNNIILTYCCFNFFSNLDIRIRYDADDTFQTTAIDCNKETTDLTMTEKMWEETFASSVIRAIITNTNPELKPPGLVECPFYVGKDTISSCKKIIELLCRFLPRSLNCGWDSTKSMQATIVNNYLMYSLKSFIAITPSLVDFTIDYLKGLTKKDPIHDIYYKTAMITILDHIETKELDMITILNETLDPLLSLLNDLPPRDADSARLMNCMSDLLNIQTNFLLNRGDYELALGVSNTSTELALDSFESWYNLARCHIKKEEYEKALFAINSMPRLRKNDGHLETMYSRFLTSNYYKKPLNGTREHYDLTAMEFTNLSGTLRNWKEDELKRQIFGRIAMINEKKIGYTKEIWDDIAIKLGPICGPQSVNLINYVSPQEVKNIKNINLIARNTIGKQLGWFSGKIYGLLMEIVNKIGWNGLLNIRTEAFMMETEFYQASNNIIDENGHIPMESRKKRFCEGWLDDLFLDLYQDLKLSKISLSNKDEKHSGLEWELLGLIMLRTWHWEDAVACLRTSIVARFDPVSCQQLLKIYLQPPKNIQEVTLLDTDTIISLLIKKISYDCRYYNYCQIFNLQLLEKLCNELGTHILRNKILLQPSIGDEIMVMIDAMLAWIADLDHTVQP

[4] = target: T5, Chs5(1-299)/Bch1 exomer complex (S. cerevisiae (yeast), UniProt Q12114 1-299; Q05029 1-724); test: co-sedimentation
T5 sequence 1: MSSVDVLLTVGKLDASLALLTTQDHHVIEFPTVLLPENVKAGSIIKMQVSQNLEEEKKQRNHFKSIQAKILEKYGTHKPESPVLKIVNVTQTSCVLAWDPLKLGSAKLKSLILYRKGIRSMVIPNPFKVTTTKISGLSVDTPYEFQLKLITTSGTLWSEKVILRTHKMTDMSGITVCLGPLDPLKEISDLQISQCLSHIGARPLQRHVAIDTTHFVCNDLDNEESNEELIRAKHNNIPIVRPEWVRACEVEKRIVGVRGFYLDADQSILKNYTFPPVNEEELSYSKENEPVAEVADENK
T5 sequence 2: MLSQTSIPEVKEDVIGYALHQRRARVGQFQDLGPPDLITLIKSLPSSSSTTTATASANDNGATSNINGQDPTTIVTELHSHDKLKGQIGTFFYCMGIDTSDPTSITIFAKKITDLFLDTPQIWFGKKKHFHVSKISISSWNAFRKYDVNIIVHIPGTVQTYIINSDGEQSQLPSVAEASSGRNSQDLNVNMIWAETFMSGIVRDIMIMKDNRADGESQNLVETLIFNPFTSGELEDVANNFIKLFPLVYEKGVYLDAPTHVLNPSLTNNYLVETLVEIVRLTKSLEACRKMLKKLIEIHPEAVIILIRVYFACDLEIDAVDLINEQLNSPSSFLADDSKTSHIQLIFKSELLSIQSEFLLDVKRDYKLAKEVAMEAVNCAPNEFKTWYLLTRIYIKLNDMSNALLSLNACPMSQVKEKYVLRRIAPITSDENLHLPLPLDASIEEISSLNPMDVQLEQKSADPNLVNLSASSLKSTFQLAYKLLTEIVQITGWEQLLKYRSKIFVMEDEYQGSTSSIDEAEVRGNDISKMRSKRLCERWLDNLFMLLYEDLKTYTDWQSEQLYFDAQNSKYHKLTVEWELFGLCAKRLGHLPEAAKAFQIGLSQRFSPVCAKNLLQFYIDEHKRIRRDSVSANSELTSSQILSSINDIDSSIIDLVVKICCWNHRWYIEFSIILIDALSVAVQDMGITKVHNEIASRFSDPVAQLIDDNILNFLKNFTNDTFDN

[5] = target: T6, Chs5(1-299)-T92Y/Bch1 exomer complex (S. cerevisiae (yeast), UniProt Q12114 1-299; Q05029 1-724, T92Y); test: co-sedimentation
T6 sequence 1: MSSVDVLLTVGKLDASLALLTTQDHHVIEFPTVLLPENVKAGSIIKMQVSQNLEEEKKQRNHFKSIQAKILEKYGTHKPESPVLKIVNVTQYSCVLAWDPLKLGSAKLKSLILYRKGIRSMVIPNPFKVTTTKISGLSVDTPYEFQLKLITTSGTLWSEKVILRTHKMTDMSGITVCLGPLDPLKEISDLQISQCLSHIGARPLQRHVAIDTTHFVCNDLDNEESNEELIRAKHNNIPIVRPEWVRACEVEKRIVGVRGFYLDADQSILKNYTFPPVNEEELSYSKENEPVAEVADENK
T6 sequence 2: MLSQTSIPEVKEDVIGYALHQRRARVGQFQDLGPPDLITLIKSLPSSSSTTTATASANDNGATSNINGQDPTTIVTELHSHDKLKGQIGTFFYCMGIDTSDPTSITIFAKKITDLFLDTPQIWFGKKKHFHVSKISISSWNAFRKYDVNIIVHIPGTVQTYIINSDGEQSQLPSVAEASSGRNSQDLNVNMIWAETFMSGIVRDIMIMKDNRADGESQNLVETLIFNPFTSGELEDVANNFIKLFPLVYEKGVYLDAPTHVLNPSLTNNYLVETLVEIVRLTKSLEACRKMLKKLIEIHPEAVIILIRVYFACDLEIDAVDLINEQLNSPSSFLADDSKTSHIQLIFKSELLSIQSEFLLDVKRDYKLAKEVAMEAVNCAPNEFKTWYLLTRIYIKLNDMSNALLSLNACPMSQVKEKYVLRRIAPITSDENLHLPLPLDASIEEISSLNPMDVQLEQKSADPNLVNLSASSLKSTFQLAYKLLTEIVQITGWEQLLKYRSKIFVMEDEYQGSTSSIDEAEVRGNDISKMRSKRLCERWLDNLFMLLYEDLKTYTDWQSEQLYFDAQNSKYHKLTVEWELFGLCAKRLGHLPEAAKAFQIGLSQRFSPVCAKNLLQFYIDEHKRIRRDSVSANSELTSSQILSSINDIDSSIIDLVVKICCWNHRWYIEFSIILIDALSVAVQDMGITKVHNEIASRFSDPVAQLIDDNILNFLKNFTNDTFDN

Measured: binding result

B1: Chs5 (residues 1-299) (domain or fragment, S. cerevisiae (yeast), UniProt Q12114 1-299, looked up)
chain: MSSVDVLLTVGKLDASLALLTTQDHHVIEFPTVLLPENVKAGSIIKMQVSQNLEEEKKQRNHFKSIQAKILEKYGTHKPESPVLKIVNVTQTSCVLAWDPLKLGSAKLKSLILYRKGIRSMVIPNPFKVTTTKISGLSVDTPYEFQLKLITTSGTLWSEKVILRTHKMTDMSGITVCLGPLDPLKEISDLQISQCLSHIGARPLQRHVAIDTTHFVCNDLDNEESNEELIRAKHNNIPIVRPEWVRACEVEKRIVGVRGFYLDADQSILKNYTFPPVNEEELSYSKENEPVAEVADENK
binds: Bch1 | crystal structure

B2: myristoylated Arf1 (wild type), GTP-bound, anchored on liposomes (natural protein, yeast, UniProt P11076 1-181, looked up)
chain: MGLFASKLFSNLFGNKEMRILMVGLDGAGKTTVLYKLKLGEVITTIPTIGFNVETVQYKNISFTVWDVGGQDRIRSLWRHYYRNTEGVIFVVDSNDRSRIGEAREVMQRMLNEDELRNAAWLVFANKQDLPEAMSAAEITEKLGLHSIRNRPWFIQATCATSGEGLYEGLEWLSNSLKNST
modifications: myristoylated
binds: [1] | [2] | [3] | [4] | [5]
